Results on eight molecules are retold here after patent US20230174642A1, “AFFINITY-MATURATED ANTI-ASIC1a ANTIBODIES” (SHANGHAITECH UNIVERSITY, priority 2019, published 2023).

The target of assay [1] is T1, human ASIC2a-eYFP (hASIC2a-eYFP) on transiently transfected CHO-K1 cells (human, UniProt Q16515 1-512).
T1 construct: whole, on cells; not shown: eYFP fusion partner
T1 sequence (looked up): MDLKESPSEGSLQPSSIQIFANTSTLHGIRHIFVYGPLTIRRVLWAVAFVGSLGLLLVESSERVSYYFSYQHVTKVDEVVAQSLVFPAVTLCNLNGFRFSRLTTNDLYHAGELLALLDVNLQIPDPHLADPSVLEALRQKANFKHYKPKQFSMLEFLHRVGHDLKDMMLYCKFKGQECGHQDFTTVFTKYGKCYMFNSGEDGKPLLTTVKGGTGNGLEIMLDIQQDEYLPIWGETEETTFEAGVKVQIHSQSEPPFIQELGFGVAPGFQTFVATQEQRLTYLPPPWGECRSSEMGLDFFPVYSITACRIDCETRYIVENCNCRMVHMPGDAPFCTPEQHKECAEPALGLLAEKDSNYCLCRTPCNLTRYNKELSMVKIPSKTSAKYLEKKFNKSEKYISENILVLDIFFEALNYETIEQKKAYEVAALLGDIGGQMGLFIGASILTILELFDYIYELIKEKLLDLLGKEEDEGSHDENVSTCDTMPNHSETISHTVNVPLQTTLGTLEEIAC
The experiment in a line: FACS on transiently transfected CHO-K1 cells. Here is the method:
(§1) To investigate the species selectivity of ASC06-IgG1 affinity-matured antibodies, plasmids encoding fusion proteins of eYFP with […] homologs of ASIC1a were constructed. These plasmids included those encoding human ASIC1a (hASIC1a-eYFP), mouse ASIC1a (mASIC1a-eYFP), and rat ASIC1a (rASIC1a-eYFP). CHO-K1 cells were transiently transfected with the ASIC1a-eYFP plasmids, and a fluorescence activated cell sorting (FACS)-based binding assay was carried out to determine binding to the homologs or isoforms of ASIC1a expressed on the cell surface. An isotype control was used as a negative control for binding (NC). ASC06-IgG1 was used as a positive control. Summarily, the CHO-K1 cells expressing the ASIC1a-eYFP (green) homologs were stained with the indicated antibody (red) and subjected to FACS.
(§2) To examine the ASIC isotype selectivity of ASC06-IgG1 affinity-matured antibodies, plasmids encoding fusion proteins of eYFP with isoforms of […] were constructed. These plasmids included those encoding human ASIC1b (hASIC1b-eYFP), human ASIC2a (hASIC2a-eYFP), and human ASIC3a (hASIC3a-eYFP). CHO-K1 cells were transiently transfected with these plasmids and used in a FACS-based binding assay disclosed herein. Binding of ASC06-IgG1 to CHO-K1 cells expressing human ASIC1a-eYFP (hASIC1a-eYFP) was used as a positive control (data not shown and FIG. 2), and an isotype control was used as a negative control for binding (NC).

Assay [2] addresses T2, human ASIC3a-eYFP (hASIC3a-eYFP) on transiently transfected CHO-K1 cells (human, UniProt Q9UHC3 1-531).
T2 construct: whole, on cells; not shown: eYFP fusion partner
T2 sequence (looked up): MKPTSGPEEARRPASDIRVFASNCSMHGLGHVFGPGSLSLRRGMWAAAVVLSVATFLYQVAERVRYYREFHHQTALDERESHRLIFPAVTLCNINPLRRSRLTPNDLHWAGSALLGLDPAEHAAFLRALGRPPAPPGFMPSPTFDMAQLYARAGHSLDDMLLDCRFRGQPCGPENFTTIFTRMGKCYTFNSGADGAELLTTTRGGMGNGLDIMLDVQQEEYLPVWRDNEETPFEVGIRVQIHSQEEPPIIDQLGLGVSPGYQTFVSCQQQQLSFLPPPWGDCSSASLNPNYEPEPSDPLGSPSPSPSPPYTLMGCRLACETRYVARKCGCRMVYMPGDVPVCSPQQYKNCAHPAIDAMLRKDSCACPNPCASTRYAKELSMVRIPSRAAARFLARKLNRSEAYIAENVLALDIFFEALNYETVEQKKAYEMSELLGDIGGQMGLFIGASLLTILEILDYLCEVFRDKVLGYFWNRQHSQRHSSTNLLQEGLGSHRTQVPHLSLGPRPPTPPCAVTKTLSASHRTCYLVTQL
As to the kind of experiment: FACS on transiently transfected CHO-K1 cells. The method, then: as §1, §2

In assay [3] the target is T3, ASIC1a (Homo sapiens, UniProt P78348).
T3 construct: expressed in transfected cells
T3 sequence (P78348 1-528): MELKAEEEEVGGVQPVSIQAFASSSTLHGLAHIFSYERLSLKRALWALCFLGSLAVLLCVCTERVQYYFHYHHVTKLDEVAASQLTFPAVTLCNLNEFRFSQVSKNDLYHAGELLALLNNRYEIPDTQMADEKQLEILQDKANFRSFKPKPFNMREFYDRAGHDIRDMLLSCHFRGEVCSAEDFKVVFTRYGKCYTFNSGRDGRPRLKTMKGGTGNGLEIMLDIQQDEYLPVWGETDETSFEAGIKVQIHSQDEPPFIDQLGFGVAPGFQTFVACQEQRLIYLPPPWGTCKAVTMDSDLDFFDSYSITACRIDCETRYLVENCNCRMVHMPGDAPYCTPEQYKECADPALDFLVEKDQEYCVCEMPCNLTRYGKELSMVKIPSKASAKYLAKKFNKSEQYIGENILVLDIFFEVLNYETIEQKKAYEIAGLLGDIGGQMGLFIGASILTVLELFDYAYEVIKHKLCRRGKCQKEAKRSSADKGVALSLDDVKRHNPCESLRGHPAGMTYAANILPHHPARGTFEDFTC
The experiment in a line: Patch clamp whole-cell recording of acid-induced hASIC1a currents. Type of assay: cell-based. The note with it: for blockage of ASIC1a-mediated currents compared to ASC06-IgG1: 100 nM antibody. Here is the method: FIGS. 4A-4E show the effect of affinity-matured ASC06-IgG1 derivative antibodies on the hASIC1a currents. Shown are the representative current traces recorded from single CHO-K1 cells stably expressing hASIC1a in the absence or presence of 100 nM ASC06-IgG1 (FIG. 4A) or affinity-matured ASC06-IgG1 versions ASC06-01-IgG1 (FIG. 4B), ASC06-02-IgG1 (FIG. 4C), ASC06-03-IgG1 (FIG. 4D), or ASC06-04-IgG1 (FIG. 4E). Amiloride (30 μM) was used as a positive control. “Wash” represents the recovery of the current after the treatment of 100 nM indicated antibody followed by 15 min infusion of washing solution.
Whether the affinity-matured ASC06-IgG1 derivative antibodies have an effect on the acid-induced, hASIC1a-mediated electrical current in cells was tested. An hASIC1a overexpressing stable cell line was used as a model for these studies. Extracellular pH was decreased from pH 7.4 to pH 6.0 and the amplitudes of the hASIC1a-mediated inward currents were recorded in the whole-cell recording mode in the presence of the affinity-matured ASC06-IgG1 derivative antibodies (FIGS. 4A-4E). The ASIC1a inhibitor amiloride (30 μM) was used as a positive control for the inhibition of ASIC1a currents.
For orientation: Patch clamp records ionic current or voltage across a cell membrane.

B1: ASC06-03-IgG1 (antibody, V domains shown)
VH: QVQLQQSGGGLVQPGGSLRLSCAASGFTFSSYAMSWVRQAPGKGLEWVSAISGSGGSTYYADSVKGRFTISRDNSKNTLYLQMNSLRAEDTAVYYCAKDSFYGRAKGSWGQGTLVTVSS
VL: QSALTQPASVSGSPGQSITISCTGTSSDVGAYNYVSWYQQQPGKAPKLMIYGVSNRPSGVSNRFSGSKSGNAASLTISGLQAEDEADYYCSSYTSSSTYVFGTGTKLTVLG
notes: Full length IgG1
As to B1, the binding result in assay [1] and in assay [2] was “no binding” each time.

B2: ASC06-03-IgG1: affinity-matured ASC06 derivative, VH-CDR3 DSFYGRAKGS (SEQ ID NO: 15) (antibody, V domains shown)
VH: QVQLQQSGGGLVQPGGSLRLSCAASGFTFSSYAMSWVRQAPGKGLEWVSAISGSGGSTYYADSVKGRFTISRDNSKNTLYLQMNSLRAEDTAVYYCAKDSFYGRAKGSWGQGTLVTVSS
VL: QSALTQPASVSGSPGQSITISCTGTSSDVGAYNYVSWYQQQPGKAPKLMIYGVSNRPSGVSNRFSGSKSGNAASLTISGLQAEDEADYYCSSYTSSSTYVFGTGTKLTVLG
For the molecule B2, the “blockage of ASIC1a-mediated currents compared to ASC06-IgG1” value (from here on “blockage … compared to ASC06-IgG1”) in assay [3] is “stronger blockage”.

B3: ASC06-02-IgG1: affinity-matured ASC06 derivative, VH-CDR3 DSFFGRAKGS (SEQ ID NO: 13) (antibody, V domains shown)
VH: QVQLQQSGGGLVQPGGSLRLSCAASGFTFSSYAMSWVRQAPGKGLEWVSAISGSGGSTYYADSVKGRFTISRDNSKNTLYLQMNSLRAEDTAVYYCAKDSFFGRAKGSWGQGTLVTVSS
VL: QSALTQPASVSGSPGQSITISCTGTSSDVGAYNYVSWYQQQPGKAPKLMIYGVSNRPSGVSNRFSGSKSGNAASLTISGLQAEDEADYYCSSYTSSSTYVFGTGTKLTVLG
Turning to B3, in assay [3], the “blockage … compared to ASC06-IgG1” value is listed as “stronger blockage”.

B4: ASC06-04-IgG1: affinity-matured ASC06 derivative, VH-CDR3 DSFYGRAKGV (SEQ ID NO: 17) (antibody, V domains shown)
VH: QVQLQQSGGGLVQPGGSLRLSCAASGFTFSSYAMSWVRQAPGKGLEWVSAISGSGGSTYYADSVKGRFTISRDNSKNTLYLQMNSLRAEDTAVYYCAKDSFYGRAKGVWGQGTLVTVSS
VL: QSALTQPASVSGSPGQSITISCTGTSSDVGAYNYVSWYQQQPGKAPKLMIYGVSNRPSGVSNRFSGSKSGNAASLTISGLQAEDEADYYCSSYTSSSTYVFGTGTKLTVLG
For the molecule B4, the “blockage … compared to ASC06-IgG1” value in assay [3] is “stronger blockage”. The “Percent inhibition of the acid induced-hASIC1a currents” value in assay [3] (300 nM antibody, pH 7.4 to pH 6.0, mean ± standard deviation) was found to be 96.8 ± 3.4%.

B5: ASC06-01-IgG1 (antibody, V domains shown)
VH: QVQLQQSGGGLVQPGGSLRLSCAASGFTFSSYAMSWVRQAPGKGLEWVSAISGSGGSTYYADSVKGRFTISRDNSKNTLYLQMNSLRAEDTAVYYCAKDSYFGYSKGDWGQGTLVTVSS
VL: QSALTQPASVSGSPGQSITISCTGTSSDVGAYNYVSWYQQQPGKAPKLMIYGVSNRPSGVSNRFSGSKSGNAASLTISGLQAEDEADYYCSSYTSSSTYVFGTGTKLTVLG
notes: Full length IgG1
With B5, the binding result in assay [1] and in assay [2] was “no binding” each time.

B6: ASC06-IgG1 (antibody, V domains shown)
VH: QVQLQQSGGGLVQPGGSLRLSCAASGFTFSSYAMSWVRQAPGKGLEWVSAISGSGGSTYYADSVKGRFTISRDNSKNTLYLQMNSLRAEDTAVYYCAKDSFYGYSKGDWGQGTLVTVSS
VL: QSALTQPASVSGSPGQSITISCTGTSSDVGAYNYVSWYQQQPGKAPKLMIYGVSNRPSGVSNRFSGSKSGNAASLTISGLQAEDEADYYCSSYTSSSTYVFGTGTKLTVLG
notes: Tested as full length IgG1; also called WT antibody ASC06-IgG1; parental ASC06-IgG1 antibody
As for B6, the binding result in assay [1] and in assay [2] was “no binding” each time.

B7: ASC06-04-IgG1 (antibody, V domains shown)
VH: QVQLQQSGGGLVQPGGSLRLSCAASGFTFSSYAMSWVRQAPGKGLEWVSAISGSGGSTYYADSVKGRFTISRDNSKNTLYLQMNSLRAEDTAVYYCAKDSFYGRAKGVWGQGTLVTVSS
VL: QSALTQPASVSGSPGQSITISCTGTSSDVGAYNYVSWYQQQPGKAPKLMIYGVSNRPSGVSNRFSGSKSGNAASLTISGLQAEDEADYYCSSYTSSSTYVFGTGTKLTVLG
notes: Full length IgG1
B7: the binding result in assay [1] and in assay [2] was “no binding” throughout.

B8: ASC06-02-IgG1 (antibody, V domains shown)
VH: QVQLQQSGGGLVQPGGSLRLSCAASGFTFSSYAMSWVRQAPGKGLEWVSAISGSGGSTYYADSVKGRFTISRDNSKNTLYLQMNSLRAEDTAVYYCAKDSFFGRAKGSWGQGTLVTVSS
VL: QSALTQPASVSGSPGQSITISCTGTSSDVGAYNYVSWYQQQPGKAPKLMIYGVSNRPSGVSNRFSGSKSGNAASLTISGLQAEDEADYYCSSYTSSSTYVFGTGTKLTVLG
notes: Full length IgG1
On to B8, for which the binding result in assay [1] and in assay [2] was “no binding” each time.
